These results are taken from IntAct's records for PubMed 33199366.

To fix the notation:
B1: Serine/threonine-protein kinase DCLK1 (Homo sapiens), O15075 (parent)
chain: MSFGRDMELEHFDERDKAQRYSRGSRVNGLPSPTHSAHCSFYRTRTLQTLSSEKKAKKVRFYRNGDRYFKGIVYAISPDRFRSFEALLADLTRTLSDNVNLPQGVRTIYTIDGLKKISSLDQLVEGESYVCGSIEPFKKLEYTKNVNPNWSVNVKTTSASRAVSSLATAKGSPSEVRENKDFIRPKLVTIIRSGVKPRKAVRILLNKKTAHSFEQVLTDITDAIKLDSGVVKRLYTLDGKQVMCLQDFFGDDDIFIACGPEKFRYQDDFLLDESECRVVKSTSYTKIASSSRRSTTKSPGPSRRSKSPASTSSVNGTPGSQLSTPRSGKSPSPSPTSPGSLRKQRSSQHGGSSTSLASTKVCSSMDENDGPGEEVSEEGFQIPATITERYKVGRTIGDGNFAVVKECVERSTAREYALKIIKKSKCRGKEHMIQNEVSILRRVKHPNIVLLIEEMDVPTELYLVMELVKGGDLFDAITSTNKYTERDASGMLYNLASAIKYLHSLNIVHRDIKPENLLVYEHQDGSKSLKLGDFGLATIVDGPLYTVCGTPTYVAPEIIAETGYGLKVDIWAAGVITYILLCGFPPFRGSGDDQEVLFDQILMGQVDFPSPYWDNVSDSAKELITMMLLVDVDQRFSAVQVLEHPWVNDDGLPENEHQLSVAGKIKKHFNTGPKPNSTAAGVSVIATTALDKERQVFRRRRNQDVRSRYKAQPAPPELNSESEDYSPSSSETVRSPNSPF
partner: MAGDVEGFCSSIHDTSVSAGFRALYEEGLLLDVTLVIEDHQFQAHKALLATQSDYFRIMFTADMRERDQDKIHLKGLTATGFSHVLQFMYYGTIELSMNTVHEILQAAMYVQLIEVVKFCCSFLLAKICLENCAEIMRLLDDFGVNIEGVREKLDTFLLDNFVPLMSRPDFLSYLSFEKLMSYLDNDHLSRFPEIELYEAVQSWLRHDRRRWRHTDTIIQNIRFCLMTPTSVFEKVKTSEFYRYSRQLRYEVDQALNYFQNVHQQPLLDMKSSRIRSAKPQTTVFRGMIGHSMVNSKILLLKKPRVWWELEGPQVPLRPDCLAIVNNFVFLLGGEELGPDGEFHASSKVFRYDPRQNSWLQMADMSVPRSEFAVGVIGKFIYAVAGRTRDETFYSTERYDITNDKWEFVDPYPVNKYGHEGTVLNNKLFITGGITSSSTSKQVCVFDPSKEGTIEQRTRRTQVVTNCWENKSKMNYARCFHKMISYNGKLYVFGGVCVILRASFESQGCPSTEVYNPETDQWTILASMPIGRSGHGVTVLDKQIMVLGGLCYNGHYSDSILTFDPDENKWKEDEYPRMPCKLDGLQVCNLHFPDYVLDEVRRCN
B2: Serine/threonine-protein kinase DCLK2 (Homo sapiens), Q8N568 (parent)
chain: MASTRSIELEHFEERDKRPRPGSRRGAPSSSGGSSSSGPKGNGLIPSPAHSAHCSFYRTRTLQALSSEKKAKKARFYRNGDRYFKGLVFAISSDRFRSFDALLIELTRSLSDNVNLPQGVRTIYTIDGSRKVTSLDELLEGESYVCASNEPFRKVDYTKNINPNWSVNIKGGTSRALAAASSVKSEVKESKDFIKPKLVTVIRSGVKPRKAVRILLNKKTAHSFEQVLTDITEAIKLDSGVVKRLCTLDGKQVTCLQDFFGDDDVFIACGPEKFRYAQDDFVLDHSECRVLKSSYSRSSAVKYSGSKSPGPSRRSKSPASVNGTPSSQLSTPKSTKSSSSSPTSPGSFRGLKQISAHGRSSSNVNGGPELDRCISPEGVNGNRCSESSTLLEKYKIGKVIGDGNFAVVKECIDRSTGKEFALKIIDKAKCCGKEHLIENEVSILRRVKHPNIIMLVEEMETATELFLVMELVKGGDLFDAITSSTKYTERDGSAMVYNLANALRYLHGLSIVHRDIKPENLLVCEYPDGTKSLKLGDFGLATVVEGPLYTVCGTPTYVAPEIIAETGYGLKVDIWAAGVITYILLCGFPPFRSENNLQEDLFDQILAGKLEFPAPYWDNITDSAKELISQMLQVNVEARCTAGQILSHPWVSDDASQENNMQAEVTGKLKQHFNNALPKQNSTTTGVSVIMNTALDKEGQIFCSKHCQDSGRPGMEPISPVPPSVEEIPVPGEAVPAPTPPESPTPHPPPAAPGGERAGTWRRHRD
partner: B1 partner
B3: Neuronal migration protein doublecortin (Mus musculus), O88809 (parent)
chain: MELDFGHFDERDKASRNMRGSRMNGLPSPTHSAHCSFYRTRTLQALSNEKKAKKVRFYRNGDRYFKGIVYAVSSDRFRSFDALLADLTRSLSDNINLPQGVRYIYTIDGSRKIGSMDELEEGESYVCSSDNFFKKVEYTKNVNPNWSVNVKTSANMKAPQSLASSNSAQARENKDFVRPKLVTIIRSGVKPRKAVRVLLNKKTAHSFEQVLTDITEAIKLETGVVKKLYTLDGKQVTCLHDFFGDDDVFIACGPEKFRYAQDDFSLDENECRVMKGNPSAAAGPKASPTPQKTSAKSPGPMRRSKSPADSGNDQDANGTSSSQLSTPKSKQSPISTPTSPGSLRKHKVDLYLPLSLDDSDSLGDSM
partner: B1 partner

The variants in one assay derive from B1. As to conditions: with klh15_human KLHL15, Q96M94.
For Y265L, the “effect of a mutation on the interaction” value is listed as “decreasing interaction”.

The next assay covers variants of B2. Conditions: with klh15_human KLHL15, Q96M94.
As to Y276L, the “effect of a mutation on the interaction” value is recorded as “decreasing interaction”.

The next assay covers variants of B3. Conditions: with klh15_human KLHL15, Q96M94.
In the case of MELDFGHFDERDKASRNMRGSRMNGLPSPTHSAHCSFYRTRTLQALSNEKKAKKVRFYRNGDRYFKGIVYAVSSDRFRSFDALLADLTRSLSDNINLPQGVRYIYTIDGSRKIGSMDELEEGESYVCSSDNFFKKVEYTKNVNPNWSVNVKTSANMKAPQSLASSNSAQARENKDFVRPKLVTIIRSGVKPRKAVRVLLNKKTAHSFEQVLTDITEAIKLETGVVKKLYTLDGKQVTCLHDFFGDDDVFIACGPEKFRLAQDDFSLDENECRVMKGNPSAAAGPKASPTPQKTSAKSPGPMRRSKSPADSGNDQDANGTSSSQLSTPKSKQSPISTPTSPGSLRKHKVDLYLPLSLDDSDSLGDSM [Y259L], the “effect of a mutation on the interaction” value was “decreasing interaction”.
